Results on 67 substances are retold here after the supplement of paper PMC12042874.

This series in a line: amyloid nucleation score (Sup35N fusion, yeast selection) (log enrichment); library NNK3; higher = more nucleation; inactive = no reads after selection. An outline of the steps:
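Peptides of 20 random codons, each fused to Sup35N, were expressed in psi-negative yeast. Cells were induced with 100 μM copper sulfate for 24 hours and grown 7 days at 30°C on medium lacking adenine and uracil, and plasmid inserts before and after selection were Illumina-sequenced. Nucleation scores are DiMSum log enrichments of output over input reads, centred on the mode score of non-aggregating sequences, and sequences under 100 input reads were excluded.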

± gives the uncertainty stated by the source.

Turning to SMNACSRNGLGMWKVMDLFT, the amyloid nucleation score entry was “inactive”. Regarding LLLCYYNGIWRFDGRLS, the amyloid nucleation score entry was “inactive”. As for WSVVRRAELSNSVKFEDHGM, the entry is “inactive”; as for RMYLAHFCVIN, 2.9 ± 0.062; as for SCLHYVTVY, “inactive”. As for WGGVGKKMKRQRTAGTSRSG, the entry is “inactive”; as for SFKAWIWSSMIAVGLTQRYS, “inactive”; as for THLRLIYITD, “inactive”. As for SLKFIELDMSIVVMSSDYFR, the entry is “inactive”.

Take TMRVVFRHKTVNRIEVKVYF: the amyloid nucleation score was -0.234 ± 0.69. The result for KSHWTTM reads 1.64 ± 0.11; that for YNMYQTHLSSYNYHQDATKN, 1.7 ± 0.095. The result for GSFVVMF reads “inactive”; that for MSCICGKPTAVCI, “inactive”. The result for FSAKDFSNVYRSPSMF reads “inactive”; that for NLCSCDNWRRRRCASMWALV, “inactive”. Regarding ISSPDSTTIRNDVSD, the amyloid nucleation score entry is “inactive”. The result for FFFKSLEVSVTQR reads “inactive”; that for TCLQVSTFFVQASKSLYLPI, 0.953 ± 0.11. Consider LKVVVDQKVG, for which the amyloid nucleation score is 1.27 ± 0.15. As for TGIMIVNYLVSELKPRTIST, the figure is 0.923 ± 0.11; as for VKNVIRGIKAQKVGGDESLC, “inactive”. For the substance CYGKTGSCFSVLHGWGGFVM, the amyloid nucleation score entry was “inactive”. On to SSWNTTYMESSVPVGYLFRI, for which the amyloid nucleation score result was “inactive”. Consider IGITHFRTCDGHNVRGRNRW, for which the amyloid nucleation score entry was “inactive”. The result for ITLLYALVLFFTWNVSG reads “inactive”; that for DKGFINCVSGSGDHVTCGGS, “inactive”.

Turning to MGAANSWETDKF, the amyloid nucleation score entry was “inactive”. The substance YVAYFSGIVLMHHSRDIQFP had an amyloid nucleation score of 0.496 ± 0.34.

On to LVGMDTGIVNDSIDGPGYWV, for which the amyloid nucleation score result was “inactive”.

In turn, NYFCDIFNLSVNSILNYY yielded an amyloid nucleation score of 0.68 ± 0.19. The result for YSGWVCWSLQLTYMTFNFRL reads “inactive”. Turning to HSSSVTCI, the amyloid nucleation score entry was “inactive”.

For LDHAKRHIIVPEYLSLAKKQ, the amyloid nucleation score entry is “inactive”. DLRLFFRRRGISQLDC returned an amyloid nucleation score of 0.356 ± 0.26. TGFSVFYSVYRRQGH gave an amyloid nucleation score of 0.912 ± 0.19. For the substance SLIITTLTHEYCMCHRIWST, the amyloid nucleation score came out at 2.25 ± 0.071. The result for MMYRSRFGLKMLPGLQPAIA reads “inactive”; that for TLVFHISFGDLVHEILNCAV, 2.17 ± 0.088; that for IGLLYLHLPNIALINRSVVG, “inactive”. Take NQTGSSRTSCCMDRWLMYIA: the amyloid nucleation score result is “inactive”. In turn, TPMIVPLMNSQVVYTLFTTK yielded an amyloid nucleation score of 2.11 ± 0.076.

With YDLCERLR, the amyloid nucleation score result was “inactive”. The result for RSSDVRQYTLMCNWSKHVVL reads 0.089 ± 0.54; that for YDRGIVWH, “inactive”.

As for DWFSAVR, the amyloid nucleation score result was “inactive”.

RRSVAFLPYMSW: the amyloid nucleation score result was “inactive”. The result for SSVGTAFLYYRKYGICADG reads “inactive”; that for KTKVTALCNIKGNNGHFPKH, “inactive”. The result for LNMGVTRLDLISLGWGSVSL reads -0.41 ± 0.75; that for FMMEACSSDKGEQSMGSWIE, -0.32 ± 0.78; that for INSRKSHGLSEPSHYQT, “inactive”. Take TRQNWENNFLLWYGEVMS: the amyloid nucleation score entry is “inactive”.

On to SGLSDPPPLLE, for which the amyloid nucleation score entry was “inactive”. Consider DSFLVYIKSCIIILTGLNLY, for which the amyloid nucleation score entry is “inactive”. For the substance VGVSISLSRARWGQIAMEET, the amyloid nucleation score came to 1.05 ± 0.2.

On to RCQRVGI, for which the amyloid nucleation score entry is “inactive”. The result for SSSAF reads “inactive”; that for WVCDRLGRVSLILRL, 1.06 ± 0.2; that for YRRGYKITSLLSFYGNHRWP, “inactive”. The result for SATFRSSVTLSRHPVNNLTP reads 1.35 ± 0.082. With ELVVTNVNGFLMW, the amyloid nucleation score result was “inactive”.

On to MHFRWQTFYSDN, for which the amyloid nucleation score result was “inactive”. As for RMFICSQYWFVWVKLPPCGL, the amyloid nucleation score result was “inactive”. Consider DHNARSVCTSNHSMAKRMFG, for which the amyloid nucleation score entry is “inactive”. As for FGQGGALFLWKCMTYFILLG, the entry is “inactive”; as for SSWPTTGRWE, “inactive”.
